From patent US20110274694

Biological target: purified Gβγ (G-protein βγ-subunits)

B1: His6-Erk2 (purified, wild-type) (protein)
chain: MAAAAAAGPEMVRGQVFDVGPRYTNLSYIGEGAYGMVCSAYDNLNKVRVAIKKISPFEHQTYCQRTLREIKILLRFRHENIIGINDIIRAPTIEQMKDVYIVQDLMETDLYKLLKTQHLSNDHICYFLYQILRGLKYIHSANVLHRDLKPSNLLLNTTCDLKICDFGLARVADPDHDHTGFLTEYVATRWYRAPEIMLNSKGYTKSIDIWSVGCILAEMLSNRPIFPGKHYLDQLNHILGILGSPSQEDLNCIINLKARNYLLSLPHKNKVPWNRLFPNADSKALDLLDKMLTFNPHKRIEVEQALAHPYLEQYYDPSDEPIAEAPFKFDMELDDLPKEKLKELIFEETARFQPGYRS
Q: For B1, which “phosphorylation of Erk2 ([32P]-autoradiography)” value is on record?
A: caused increased phosphorylation of Erk2 to an extent similar to that caused by Mek*
